Measurements as given in patent US20140186359A1 (TORAY INDUSTRIES, published 2014).

T1: human CAPRIN-1 expressed on the surface of human cancer cells (human, UniProt Q14444 2-709)
T1 sequence: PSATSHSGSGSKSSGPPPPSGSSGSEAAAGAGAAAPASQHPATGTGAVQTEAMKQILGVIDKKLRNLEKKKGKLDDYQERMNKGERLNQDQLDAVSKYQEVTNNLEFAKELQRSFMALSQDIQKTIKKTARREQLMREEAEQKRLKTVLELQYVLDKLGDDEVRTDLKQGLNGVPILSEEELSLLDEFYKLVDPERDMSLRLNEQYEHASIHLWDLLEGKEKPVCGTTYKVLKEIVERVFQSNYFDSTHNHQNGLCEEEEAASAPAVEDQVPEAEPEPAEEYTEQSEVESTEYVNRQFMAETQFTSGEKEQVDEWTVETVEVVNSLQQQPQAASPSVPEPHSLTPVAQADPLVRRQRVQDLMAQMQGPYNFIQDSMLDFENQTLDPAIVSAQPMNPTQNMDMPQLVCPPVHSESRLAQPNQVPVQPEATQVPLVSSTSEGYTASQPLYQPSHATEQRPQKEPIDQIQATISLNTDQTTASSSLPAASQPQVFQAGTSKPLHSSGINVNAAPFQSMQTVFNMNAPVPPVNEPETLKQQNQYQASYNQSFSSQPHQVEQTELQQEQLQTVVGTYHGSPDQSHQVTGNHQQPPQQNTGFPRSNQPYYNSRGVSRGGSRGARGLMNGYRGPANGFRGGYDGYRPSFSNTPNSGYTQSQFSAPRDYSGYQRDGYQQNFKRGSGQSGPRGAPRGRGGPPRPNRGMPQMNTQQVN

B1: human-mouse chimeric comparative monoclonal antibody 7 (antibody, human IgG1, kappa, V domains shown)
VH: LQESGAELARPGASVKLSCKASGYTFTSYWMQWVKQRPGQGLEWIGAIYPGDGDTRYTQKFKGKATLTADKSSSTAYMQLSSLASEDSAVYYCARGEYGNYFAYWGQGTTVTVSS
VL: TSDASLGERVTITCKASQDINSYLSWFQQKPGKSPKTLIYRANRLVDGVPSRFSGSGSGQDYSLTISSLEYEDMGIYYCLQYDEFPLTFGGGTKLEIKQ
B2: human-mouse chimeric comparative monoclonal antibody 5 (antibody, human IgG1, kappa)
heavy: not shown
light: GLFCSVERCHYQLQSSQNLLSIVNRYHYMSGNPPKLLVYPALLIYEASITKSCVPDRFTRSGSGTNFTLTINFVHADDLIFYYCQHNRGSFLPSSSVQVPRRRSNTVAAPSVFIFPPSDEQLKSGTASVVCLLNNFYPREAKVQWKVDNALQSGNSQESVTEQDSKDSTYSLSSTLTLSKADYEKHKVYACEVTHQGLSSPVTKSFNRGEC
B3: human-mouse chimeric comparative monoclonal antibody 3 (antibody, human IgG1, kappa)
heavy: not shown
light: RTTSHMDSDIQLTQSPASLSASVGETVTITCRASGNIHNYLAWYQQKQGKSPQLLVYNAKTLADGVPSRFSGSGSGTQYSLKINSLQPEDFGSYYCQHFWSTLTFGGGTKLEIKQSDTVAAPSVFIFPPSDEQLKSGTASVVCLLNNFYPREAKVQWKVDNALQSGNSQESVTEQDSKDSTYSLSSTLTLSKADYEKHKVYACEVTHQGLSSPVTKSFNRGEC
B4: human-mouse chimeric comparative monoclonal antibody 6 (antibody, human IgG1, kappa)
heavy: not shown
light: DRVSITCKASQNVRTAVAWYQQKPRQSPKALIYLASNRDTGLPDRFPGRGSGTDFTLNITNVQSEDLEDYFCLQHCNYPNEFRGCTKVPITVAAPSVFIFPPSDEQLKSGTASVVCLLNNFYPREAKVQWKVDNALQSGNSQESVTEQDSKDSTYSLSSTLTLSKADYEKHKVYACEVTHQGLSSPVTKSFNRGEC
B5: human-mouse chimeric comparative monoclonal antibody 4 (antibody, human IgG1, kappa, V domains shown)
VH: EVQLHQFGAELVKPGASVKISCKASGYTFTDYNMDWVKQSHGKSLEWIGDINPNYDSTSYNQKFKGKATLTVDKSSSTAYMELRSLTSEDTAVYYCARSRSYDYEGFAYWGQGTLVTVSA
VL: SGDRVSLSCRASQSISNYLHWYQQKSHESPRLLIKYASQSISGIPSRFSGSGSGTDFTLSINSVETEDFGMYFCQQSNSWPYTFGAGTKLEIKQ

These binders were tested against T1, human CAPRIN-1 expressed on the surface … (assay: cell-based or functional assay).
Throughout, for ADCC cytotoxic activity (51Cr release) against Caki-2: test concentration or dose not given here.
Throughout, for ADCC cytotoxic activity (51Cr release) against HCT-116: test concentration or dose not given here.
Throughout, for ADCC cytotoxic activity (51Cr release) against MCF7: test concentration or dose not given here.
Throughout, for ADCC cytotoxic activity (51Cr release) against MIAPaCa-2: test concentration or dose not given here.
Throughout, for ADCC cytotoxic activity (51Cr release) against QG56: test concentration or dose not given here.

Binder | ADCC cytotoxic activity (51Cr release) against Caki-2 [%] | ADCC cytotoxic activity (51Cr release) against HCT-116 [%] | ADCC cytotoxic activity (51Cr release) against MCF7 [%] | ADCC cytotoxic activity (51Cr release) against MIAPaCa-2 [%] | ADCC cytotoxic activity (51Cr release) against QG56 [%] | ADCC cytotoxic activity (51Cr release) against all other cancer cell lines listed [%]
B1 | < 8 | < 3 | < 5 | 7 | < 5 | < 4
B2 | < 8 | < 3 | < 5 | 7 | < 5 | < 4
B3 | < 8 | < 3 | < 5 | 7 | < 5 | < 4
B4 | < 8 | < 3 | < 5 | 7 | < 5 | < 4
B5 | < 8 | < 3 | < 5 | 7 | < 5 | < 4
